Results on two substances are retold here after article PMC8556674.

Assay [1] deals with mchr-Miro2 (human) (UniProt Q8IXI1).
In the next assay the target is mchr-Miro2 A13V (human) (UniProt Q8IXI1).
Assay [2] deals with mchr-Miro2 (human) (UniProt Q8IXI1). The source holds these as a separate data set.

Chain of mchr-Miro2 (human) (Q8IXI1 whole entry): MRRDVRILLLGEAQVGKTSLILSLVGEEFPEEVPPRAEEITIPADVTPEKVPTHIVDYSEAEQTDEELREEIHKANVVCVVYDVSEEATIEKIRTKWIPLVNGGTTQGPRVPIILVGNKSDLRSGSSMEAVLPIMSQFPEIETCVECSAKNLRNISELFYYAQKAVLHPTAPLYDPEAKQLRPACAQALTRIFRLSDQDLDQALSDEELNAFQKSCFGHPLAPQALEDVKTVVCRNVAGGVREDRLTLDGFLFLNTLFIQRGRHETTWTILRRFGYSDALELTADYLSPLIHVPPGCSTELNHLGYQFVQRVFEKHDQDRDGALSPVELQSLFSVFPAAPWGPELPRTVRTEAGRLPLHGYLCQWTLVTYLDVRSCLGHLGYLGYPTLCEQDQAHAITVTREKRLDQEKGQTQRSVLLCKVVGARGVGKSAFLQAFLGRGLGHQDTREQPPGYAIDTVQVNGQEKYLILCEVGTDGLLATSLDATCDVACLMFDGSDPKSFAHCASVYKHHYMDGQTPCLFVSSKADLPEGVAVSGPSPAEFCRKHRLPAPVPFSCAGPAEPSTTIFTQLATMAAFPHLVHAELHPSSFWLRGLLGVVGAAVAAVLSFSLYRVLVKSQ
Chain of mchr-Miro2 A13V (human) (Q8IXI1 whole entry A13V): as the sequence (Q8IXI1 whole entry) above, with A13V counted along it

In the assay with mchr-Miro2 (human) [1], “MYO19^898–970-GFP (from UniProt Q96H55 898-970) (domain or fragment)” had a PARF immobile fraction, HeLa cells, 25 uM digitonin of 0.33. For the same substance, the FRAP immobile fraction, live HeLa cells with mchr-Miro2 A13V (human) came to 0.14; with mchr-Miro2 (human) [2] it was 0.03. Moreover, in the assay with mchr-Miro2 (human) [2], the FRAP t1/2 of mitochondrial GFP fluorescence, live HeLa cells is 9.2 s.
In the assay with mchr-Miro2 (human) [2], “MYO19^898–970-GFP mut. (K923, R927 and K928 mutated to alanine) (from UniProt Q96H55 898-970) (domain or fragment)” returned an FRAP immobile fraction, live HeLa cells of 0.04 and an FRAP t1/2 of mitochondrial GFP fluorescence, live HeLa cells of 1.5 s.
